From patent US20240124553A1 come the findings set out here.

Common to all, as to assay: flow cytometry, transfected 293T cells
Test [1] deals with CHIKV E2-E1 envelope glycoproteins (strain S27), E2 mutant P106A (chikungunya virus strain S27) (UniProt Q8JUX5).
Test [2] deals with CHIKV E2-E1 envelope glycoproteins (strain S27), E2 mutant L102A (chikungunya virus strain S27) (UniProt Q8JUX5).
Test [3] deals with CHIKV E2-E1 envelope glycoproteins (strain S27), E2 mutant T87A (chikungunya virus strain S27) (UniProt Q8JUX5).
Test [4] deals with CHIKV E2-6K-E1 envelope proteins (strain S27) with E2 V216A (Chikungunya virus strain S27) (UniProt Q8JUX5).
The target of test [5] is CHIKV E2-6K-E1 envelope proteins (strain S27) with E2 G205A (Chikungunya virus strain S27) (UniProt Q8JUX5).
For test [6], the target named is CHIKV E2-6K-E1 envelope proteins (strain S27) with E2 Q184A (Chikungunya virus strain S27) (UniProt Q8JUX5).
Test [7] concerns the target CHIKV E2-6K-E1 envelope proteins (strain S27) with E2 L210A (Chikungunya virus strain S27) (UniProt Q8JUX5).
Test [8] concerns the target CHIKV E2-6K-E1 envelope proteins (strain S27) with E2 C201A (Chikungunya virus strain S27) (UniProt Q8JUX5).
The target in test [9] is CHIKV E2-6K-E1 envelope proteins (strain S27) with E2 N202A (Chikungunya virus strain S27) (UniProt Q8JUX5).
The target in test [10] is CHIKV E2-6K-E1 envelope proteins (strain S27) with E2 S206A (Chikungunya virus strain S27) (UniProt Q8JUX5).
In test [11] the target is CHIKV E2-6K-E1 envelope proteins (strain S27) with E2 I211A (Chikungunya virus strain S27) (UniProt Q8JUX5).
Test [12] concerns the target CHIKV E2-6K-E1 envelope proteins (strain S27) with E2 V192A (Chikungunya virus strain S27) (UniProt Q8JUX5).
For test [13], the target named is CHIKV E2-6K-E1 envelope proteins (strain S27) with E2 T191A (Chikungunya virus strain S27) (UniProt Q8JUX5).
The target of test [14] is CHIKV E2-6K-E1 envelope proteins (strain S27) with E2 G209A (Chikungunya virus strain S27) (UniProt Q8JUX5).
Test [15] concerns the target CHIKV E2-6K-E1 envelope proteins (strain S27) with E2 L181A (Chikungunya virus strain S27) (UniProt Q8JUX5).
Test [16] has as its target CHIKV E2-6K-E1 envelope proteins (strain S27) with E2 G204A (Chikungunya virus strain S27) (UniProt Q8JUX5).
The target of test [17] is CHIKV E2-6K-E1 envelope proteins (strain S27) with E2 G186A (Chikungunya virus strain S27) (UniProt Q8JUX5).
Test [18] addresses CHIKV E2-6K-E1 envelope proteins (strain S27) with E2 L180A (Chikungunya virus strain S27) (UniProt Q8JUX5).
In test [19] the target is CHIKV E2-6K-E1 envelope proteins (strain S27) with E2 K189A (Chikungunya virus strain S27) (UniProt Q8JUX5).
The target of test [20] is CHIKV E2-6K-E1 envelope proteins (strain S27) with E2 S182A (Chikungunya virus strain S27) (UniProt Q8JUX5).
For test [21], the target named is CHIKV E2-6K-E1 envelope proteins (strain S27) with E2 K200A (Chikungunya virus strain S27) (UniProt Q8JUX5).
The target in test [22] is CHIKV E2-6K-E1 envelope proteins (strain S27) with E2 C220A (Chikungunya virus strain S27) (UniProt Q8JUX5).
For test [23], the target named is CHIKV E2-6K-E1 envelope proteins (strain S27) with E2 N193A (Chikungunya virus strain S27) (UniProt Q8JUX5).
Test [24] has as its target CHIKV E2-6K-E1 envelope proteins (strain S27) with E2 N218A (Chikungunya virus strain S27) (UniProt Q8JUX5).
The target of test [25] is CHIKV E2-6K-E1 envelope proteins (strain S27) with E2 R198A (Chikungunya virus strain S27) (UniProt Q8JUX5).
Test [26] deals with CHIKV E2-6K-E1 envelope proteins (strain S27) with E2 I190A (Chikungunya virus strain S27) (UniProt Q8JUX5).
The target of test [27] is CHIKV E2-6K-E1 envelope proteins (strain S27) with E2 V188A (Chikungunya virus strain S27) (UniProt Q8JUX5).
The target of test [28] is CHIKV E2-6K-E1 envelope proteins (strain S27) with E2 V197A (Chikungunya virus strain S27) (UniProt Q8JUX5).
Test [29] concerns the target CHIKV E2-6K-E1 envelope proteins (strain S27) with E2 Y199A (Chikungunya virus strain S27) (UniProt Q8JUX5).
The target of test [30] is CHIKV E2-6K-E1 envelope proteins (strain S27) with E2 S185A (Chikungunya virus strain S27) (UniProt Q8JUX5).
For test [31], the target named is CHIKV E2-6K-E1 envelope proteins (strain S27) with E2 Q183A (Chikungunya virus strain S27) (UniProt Q8JUX5).
In test [32] the target is CHIKV E2-6K-E1 envelope proteins (strain S27) with E2 K215A (Chikungunya virus strain S27) (UniProt Q8JUX5).

Consider CHIKV mAb C9 (antibody), for which the results for the Binding Reactivity (% WT) in [1], in test [2] and in [3] were 88.9 % WT, 31.2 % WT and 20.7 % WT, respectively.
On to CHIKV mAb CHKV-88 (antibody), for which the Binding Reactivity (% WT) in test [1] came out at 105 % WT; in test [2], 61.4 % WT; in [3] it was 52.9 % WT.
CHIKV mAb IM-CKV063 (antibody): the Binding Reactivity (% WT) was 94.3 % WT in test [1], 24.1 % WT in test [2] and 18.8 % WT in test [3].
The corresponding values for CHIKV mAb IM-CKV065 (antibody) are 98.1 % WT, 4.7 % WT and 7.6 % WT.
As to “Mxra8-Fc (mouse Mxra8 extracellular domain fused to mouse IgG2b Fc) (Fc fusion)”, the Binding Reactivity (% WT) was determined as 82.9 % WT in test [4]; 78.9 % WT in test [5]; 130 % WT in test [6]; 70.1 % WT in [7]; 9.6 % WT in [8]; 80.6 % WT in test [9]. Moreover, the Binding Reactivity (% WT) in test [1] was found to be 91.2 % WT; in test [10], 52.2 % WT; in test [11], 81.1 % WT; in [12] it was 56.9 % WT; in test [2], 22.8 % WT; in test [13] it was 87.4 % WT. For the same substance, the Binding Reactivity (% WT) worked out at 77.9 % WT in test [14]; 53.2 % WT in test [15]; 76.7 % WT in [16]; 108 % WT in [17]; 57 % WT in [18]; 156 % WT in test [19]. For the same substance, the Binding Reactivity (% WT) in test [20] is 70.9 % WT; in test [21], 75.5 % WT; in [22] it was 60.2 % WT; in test [23], 120 % WT; in test [24] it was 56.5 % WT; in test [25], 74 % WT. In addition, the Binding Reactivity (% WT) in test [26] is 9.4 % WT; in [27], 55.2 % WT; in test [28] it was 33.9 % WT; in test [3] it was 23.5 % WT; in [29], 15.9 % WT; in test [30], 88.1 % WT. In addition, the Binding Reactivity (% WT) worked out at 96.1 % WT in [31] and 106 % WT in test [32].
